# Tested on: TO-3-N3 (biotin conjugate)
# Experiment: pull-down binding Z-score (relative to library population); higher = stronger binding
# Settings: RNA library: Library-2
# Procedure, shortened: (§1)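 Streptavidin beads with 100 pmol of biotin-conjugated small molecule were incubated for 60 min at 25 °C with 1 μg of heat-folded Cy5- or Cy3-end-labelled RNA library in phosphate/NaCl/KCl buffer. Bound RNA was eluted in hot SDS after three washes and hybridised to a DNA barcode microarray at 55.5 °C for 20 h. Each binding score is a library-referenced Z-score, computed after beads-only subtraction and a trimmed mean of barcoded replicate probes.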
row,Sequence,pull-down binding Z-score
1,AGUCCUGUAAUUAGAUCUCAGGACU [hsa-mir-625],-0.745
2,AGUCUCUGAAGAGAGCUGUGGACUGA [hsa-mir-6721],0.726
3,AGUCUGUCUCAUACCCAACCAGAUU [hsa-mir-205],0.258
4,AGUGAAAUAAAGGUCCAUCUCCUGCCUAUUUAUUACUUUGCU [hsa-mir-1243],-0.671
5,AGUGAGCUGAGAUCACGCAACU [hsa-mir-1273f],-0.37
6,AGUGAGGCGUCGGCUGUGUUUCU [hsa-mir-2110],0.387
7,AGUGAGUUGAUUACUUCUCACU [hsa-mir-4676],-0.0959
8,AGUGCAGUAUGGUGAAGUCAAUCUGUAAU [hsa-mir-590],-0.357
9,AGUGCCUCACAGCCGCACAGGACCGAGGAUGCU [hsa-mir-4737],0.0032
10,AGUGCUAGGACACU [hsa-mir-374c],-0.441

# Tested on: TO-N3 (biotin conjugate)
# Experiment: as above
# Settings: RNA library: Library-2
# Procedure, shortened: as §1
row,Sequence,pull-down binding Z-score
1,AGCCACUGCGGUCGACCAUGACCUGGA [hsa-mir-619],0.578
2,AGCCCUGGGCUCCUCAGCAAACCUACUGGAU [hsa-mir-3174],0.857
3,AGCCCUGUUGUUGUAAGAUAGUGU [hsa-mir-550a-1],-0.00359
4,AGCCCUGUUGUUGUCAGAUAGUGU [hsa-mir-550a-2],0.216
5,AGCCUCCAAACCUGUAGACAGGGUCAUGCAGUACUAGGGGCGAG [hsa-mir-4478],0.546
6,AGCCUUCUAUUAUGCCCAGACAGGGCCACCAGAGGGCU [hsa-mir-4448],-0.746
7,AGCGCGAAAGU [hsa-mir-1539],0.054
8,AGCGCGGCGACCGUAACUCCU [hsa-mir-1237],0.724
9,AGCUGGCUGAAGGGCAGAAGGGAACUGUCCUUCAGCCAGAG [hsa-mir-4487],-0.243
10,AGCUGGGGCCGGGU [hsa-mir-4281],1.63
11,AGCUGGGUGGAGGCAGAGCU [hsa-mir-4291],2.34
12,AGCUGUGAAAGUCCUAGCU [hsa-mir-1256],2.17
13,AGCUGUGUUUUCUGACUCAGUCAUAAU [hsa-mir-365b],-0.26
14,AGCUGUUGAACUGGGAACCUGCU [hsa-mir-31],0.368
15,AGCUGUUGGCCAUGGCGACAACACCU [hsa-mir-6742],-0.246
16,AGCUUCUACGUCAUUCAGCACUUGCU [hsa-mir-5706],-0.601
17,AGCUUCUUUAUAAGAAGAGGAAACU [hsa-mir-3923],-0.151
18,AGCUUUAUGUAUUCUGAAGUUAUUGAAAAUAAGAGCU [hsa-mir-3140],-1.1

row,Sequence,pull-down binding Z-score
1,AGGACACAGGCUGGCACUGAGGUCCC [hsa-mir-6887],0.639
2,AGGACGGUGCGCCUUGUUUCCC [hsa-mir-3132],0.0408
3,AGGAGAAGGUGAGACCAAUGUCCUGGGUGCCACUCCU [hsa-mir-6124],-0.503
4,AGGAGGGUCC [hsa-mir-3141],0.766
5,AGGAGUUCACU [hsa-mir-1183],-0.253
6,AGGCAACAUGGCCGAGAGGCCGGGGCCU [hsa-mir-564],-0.12
7,AGGCACAUAUGUGAACAUUGUACCA [hsa-mir-5707],0.0876
8,AGGCAUGGGUGGCU [hsa-mir-8085],0.428
9,AGGCAUUAGGAUCCUUAUUCUUGCCU [hsa-mir-4788],-0.559
10,AGGCCAUACGUGUUGGAGAUU [hsa-mir-4461],0.792
11,AGGCCGACGAGCAGCGCAUCCUCUUACCCGGCUA [hsa-mir-138-2],1.11
12,AGGCCGUUGCCAAUCAGAGAACGGCUA [hsa-mir-138-1],1.47
13,AGGCCUGAGUCUCUCUGCUGCAGAUGGGCUC [hsa-mir-422a],0.668
14,AGGCUCUGCAAGAUCAACCGAGCA [hsa-mir-330],0.492
15,AGGCUCUGGGUCCGGCUUACUCCCUAGCUUACUGUCCUCAGAACCC [hsa-mir-6071],0.311
16,AGGCUGGUCUCAAACUCCU [hsa-mir-5096],-0.0712
17,AGGCUGUCUUCAUUCCCUCUUGACCACCC [hsa-mir-6795],1.29
18,AGGCUUGGCACUUGAGGGAAAGCCU [hsa-mir-8059],0.646

# — the supplement of paper PMC11865577
